# Results reported in US20100028952A1, “FERMENTATION AND PURIFICATION OF ACTINOMADURA CHROMOPROTEIN AND RELATED SPECIES” (WYETH, priority 2006, published 2010).
# B1: Actinomadura sp. 21G792 chromoprotein: non-covalent complex of an apoprotein and a chromophore comprising a nine-membered enediyne, produced by Actinomadura sp. 21G792 (NRRL 30778) (protein)
# chain: DTVTVNYDCVGYPSDIAVTIDAPATAGVGDTATFEVSSVVTTGAPQDLPAGEVVTDMAIVVGGAQSGTITASGLTNEATPAGQPVNMVGGEAQITFTSAGSVTFTPSTTTQVDNGAQCTVVGEAPVGATTVVS
# B2: apoprotein: 21G792 apoprotein (SEQ ID NO:150), protein component of the chromoprotein without chromophore (protein)
# chain: B1 chain
# modifications: Actinomadura sp. 21G792
# What was measured:
# histone H1 in HeLa cells = experiment: Digestion of histone H1 in HeLa cells, immunoblot; type: cell-based; conditions: HeLa cells incubated overnight at 37° C.; anti-histone H1 immunoblot
# Method: To study whether the digestion of histones by the chromoprotein occurs in intact cells, HeLa cells were incubated with compounds overnight at 37° C. Cell lysates were analysed by SDS-PAGE and protein immunoblotting using anti-histone H1 antibodies (Santa Cruz Biotechnologies). […] This activity can contribute to antitumor effects by digesting histones in chromatin, making the DNA more accessible for cleavage. This appears to be a unique activity of the chromoprotein enediynes.
# Human PGP (MDR1) = molecular target: T1, Human PGP (MDR1) (Homo sapiens, UniProt P08183); experiment: Transport by P-GP (MDR-1); type: cell-based; conditions: result in words
# T1 construct: cells expressing clinically relevant levels of MDR1 (KB-8-5 cells) remain sensitive to the complex; endogenous in cells; host or cells: KB (P-GP -), KB-8-5 (+), KB-V-1 (+++)
# Text: Human PGP (MDR1) is an ATP-dependent efflux pump which is capable of transporting many drugs across cell membranes. High level expression of this protein has been linked to multiple drug resistance of tumors. […] The protein component of the chromoprotein probably protects the chromophore from drug efflux mediated by MDR1, and may be responsible for the beneficial antitumor effects in colon cell lines which often express MDR1.
# Histone H1 = experiment: Digestion of histone H1, SDS-PAGE; type: biochemical; conditions: for digestion of histone H1: 50 mM Tris-Cl, pH 7.5 overnight at 37° C.
# Method: Histone H1 was incubated with various concentrations of the chromoprotein in 50 mM Tris-Cl, pH 7.5 overnight at 37° C. (FIG. 29) Digestions of histone were assessed by SDS-polyacrylamide gel electrophoresis (SDS-PAGE), followed by staining of the gel with GelCode Blue (Pierce Biotechnology, Inc, Rockford, Ill.).
# [1] = system: p53/p21 checkpoint in HCT116 (p21+/+ and p21−/−) cells; experiment: Induction of the G1/S checkpoint, protein immunoblot; type: cell-based, human
# Text: HCT116 (p21+/+ and p21−/−) cells were exposed to the chromoprotein at various concentrations. […] Activation of the DNA damage checkpoint by the Actinomadura sp. […] 21G792 chromoprotein as shown by the cleavage of poly ADP ribose […] (PARP) (FIG. 23B). This is consistent with the lower IC50 value in the p21−/− cells.
# p21−/− cells = experiment: In vitro anti-tumor activity, isogenic pair of cell lines; type: cell-based; conditions: p21−/− isogenic cell line; Mean + SD, n = 3
# Text: (§1) The p53/p21 checkpoint monitors the integrity of the genome and blocks cell cycle progression in the event of DNA damage. Disruption of the checkpoint by deletion of the p21 gene results in failure to arrest in response to DNA damage ultimately leading to cell death through apoptosis. Since loss of this checkpoint is a hallmark of cancer cells, an isogenic pair of cell lines, wherein one pair of the cell line (p21+/+) has an intact p21 gene and one member (p21−/−) has a deletion in the p21 gene, can be used to screen for potential anti-tumor compounds by identifying molecules that preferentially induce apoptosis in p21-deficient cells.
# (§2) The Actinomadura sp. 21G792 chromoprotein was added to an isogenic pair of cell lines (p21+/+ and p21−/−).
# p21+/+ cells = experiment: as above; type: cell-based; conditions: p21+/+ isogenic cell line; Mean + SD, n = 3
# Text: as §1, §2
# Supercoiled φX174 DNA = experiment: DNA cleavage assay, gel electrophoresis; type: biochemical
# Method: Supercoiled φX174 DNA was incubated with various concentrations of the 21G792 chromoprotein and analyzed by gel electrophoresis. […] Nicked refers to single strand breaks in the DNA and linear refers to double strand breaks.
# SW620 = experiment: Potency against human tumor cell lines; type: cell-based; conditions: SW620, Colon
# HN5 = experiment: Potency against human tumor cell lines; type: cell-based; conditions: HN5, Head & Neck
# MCF-7 = experiment: Potency against human tumor cell lines; type: cell-based; conditions: MCF-7, Breast
# [2] = system: HCT116 colon carcinoma cells; experiment: Uptake of FITC-tagged chromoprotein and apoprotein, fluorescent microscopy / flow cytometry; type: cell-based; conditions: for competition of label by unlabeled reagent: 10-fold excess of unlabeled reagent
# Method: To determine the mechanism by which the chromoprotein enters cells and exerts its biological activity, the chromoprotein was labeled with a fluorescent tag (FITC) using EZ-Label fluorescent labeling kit (Pierce Biotechnology), according to the manufacturer's recommendation. […] Uptake of labeled material by HCT116 colon carcinoma cells was studied by fluorescent microscopy. Optimum incubation time with cells was 3-6 hours. […] Even though nuclear accumulation is low, the amount is most likely sufficient for biological activity given the potency of the complex.
# To determine whether an intact complex of chromophore and apoprotein is required for cellular and nuclear entry, the chromoprotein and apoprotein were labeled with FITC. Uptake of labeled material was studied by fluorescent microscopy. Uptake was similar for both apoprotein and chromoprotein.
# To determine whether the entry of chromoprotein into cells is mediated by a saturable (e.g. cell surface receptor-dependent) process, HCT116 cells were incubated with FITC-labeled chromoprotein (FIG. 37, right panel) or apoprotein (FIG. 37, left panel) in the absence or presence of 10-fold excess of unlabeled reagent (unlabelled chromoprotein or apoprotein, respectively). Cells were analysed by fluorescent microscopy (left) or flow cytometry (right). […] Furthermore, a single homogeneous peak observed in flow cytometry histograms indicated uniform uptake of labeled reagent by all cells. Numbers in the histograms are mean channel numbers (FITC fluorescence).
# Other means by which a protein complex can enter cells is pinocytosis, where caveolae in the surface of the cell pinch off to form pinosomes that are free within the cytoplasm of the cell. Since pinocytosis is an energy-dependent process that requires a functional tubulin cytoskeletal network, we examined the effect of sodium azide, an energy uncoupling agent and nocodazole, an agent which disrupts the tubulin cytoskeleton on cellular uptake. HCT116 cells were treated with FITC-labeled apoprotein in the absence or presence of sodium azideor nocodazole. […] Since the data appears to rule out a receptor-mediated process, pinocytosis is most likely involved.
# LoVo = experiment: Potency against human tumor cell lines; type: cell-based; conditions: Colon
# [3] = system: histones H1, H2A, H2B, H3, and H4; experiment: Specificity of protein digestion by the chromoprotein; type: biochemical; conditions: myelin basic protein, bovine serum albumin
# [4] = system: E. coli BR513-80 SOS response; experiment: Biochemical induction assay (BIA); type: cell-based; conditions: purified, approximately 90% pure
# Text: The biochemical induction assay identifies DNA damaging agents which induce the SOS response in E. coli BR513-80. BR513-80 contains a translational fusion of the λ PL promoter and the lacZ gene. The λ PL promoter, activated as part of the SOS response after exposure to DNA damaging agents, drives the synthesis of β-galactosidase. β-galactosidase activity is detected by the cleavage of the 6-bromo-2-naphthyl-β-D-galactopyranoside (BNG) which reacts with Fast Blue RR salt to produce a red/purple color. […]
# A BR513-80 overnight culture is diluted 1:20 in LBE broth or equivalent, and the absorbance of the diluted culture is measured at 600 nm. The absorbance of the undiluted culture is calculated, and 5.7 is divided by this value to obtain the volume (in mL) of culture to use as an inoculum per 40 mL soft agar. […] The calculated culture volume is swirled in soft agar, poured evenly over the base layer (40 ml per Nunc BioAssay plate, or 20 mL per 150 mm petri dish), and allowed to solidify for at least 10-15 minutes. […]
# A dye/substrate overlay is prepared by dissolving 87 mg Fast Blue RR salt and 13 mg BNG in 2 mL DMSO and mixing with 40 mL melted 1% soft agar. […] The induction response is scored after 15-20 minutes at room temperature or after 10 min. at about 37° C. […]
# [5] = Toxicity of the chromoprotein in nude mice; type: in vivo; conditions: except for bone marrow suppression
# Method: 21G792 chromoprotein is well-tolerated in nude mice. Specifically, saline control vehicle or the chromoprotein in various doses was administered intravenously to six nude mice on days 1, 5, and 9.
# BT474 = experiment: Potency against human tumor cell lines; type: cell-based; conditions: BT474, Breast
# MDA-MB-361 = experiment: Potency against human tumor cell lines; type: cell-based; conditions: MDA-MB-361, Breast
# [6] = system: human tumor cell line panel; experiment: Human tumor cell line panel (whole panel); type: cell-based; conditions: result in words
# T1 sequence (P08183 whole entry): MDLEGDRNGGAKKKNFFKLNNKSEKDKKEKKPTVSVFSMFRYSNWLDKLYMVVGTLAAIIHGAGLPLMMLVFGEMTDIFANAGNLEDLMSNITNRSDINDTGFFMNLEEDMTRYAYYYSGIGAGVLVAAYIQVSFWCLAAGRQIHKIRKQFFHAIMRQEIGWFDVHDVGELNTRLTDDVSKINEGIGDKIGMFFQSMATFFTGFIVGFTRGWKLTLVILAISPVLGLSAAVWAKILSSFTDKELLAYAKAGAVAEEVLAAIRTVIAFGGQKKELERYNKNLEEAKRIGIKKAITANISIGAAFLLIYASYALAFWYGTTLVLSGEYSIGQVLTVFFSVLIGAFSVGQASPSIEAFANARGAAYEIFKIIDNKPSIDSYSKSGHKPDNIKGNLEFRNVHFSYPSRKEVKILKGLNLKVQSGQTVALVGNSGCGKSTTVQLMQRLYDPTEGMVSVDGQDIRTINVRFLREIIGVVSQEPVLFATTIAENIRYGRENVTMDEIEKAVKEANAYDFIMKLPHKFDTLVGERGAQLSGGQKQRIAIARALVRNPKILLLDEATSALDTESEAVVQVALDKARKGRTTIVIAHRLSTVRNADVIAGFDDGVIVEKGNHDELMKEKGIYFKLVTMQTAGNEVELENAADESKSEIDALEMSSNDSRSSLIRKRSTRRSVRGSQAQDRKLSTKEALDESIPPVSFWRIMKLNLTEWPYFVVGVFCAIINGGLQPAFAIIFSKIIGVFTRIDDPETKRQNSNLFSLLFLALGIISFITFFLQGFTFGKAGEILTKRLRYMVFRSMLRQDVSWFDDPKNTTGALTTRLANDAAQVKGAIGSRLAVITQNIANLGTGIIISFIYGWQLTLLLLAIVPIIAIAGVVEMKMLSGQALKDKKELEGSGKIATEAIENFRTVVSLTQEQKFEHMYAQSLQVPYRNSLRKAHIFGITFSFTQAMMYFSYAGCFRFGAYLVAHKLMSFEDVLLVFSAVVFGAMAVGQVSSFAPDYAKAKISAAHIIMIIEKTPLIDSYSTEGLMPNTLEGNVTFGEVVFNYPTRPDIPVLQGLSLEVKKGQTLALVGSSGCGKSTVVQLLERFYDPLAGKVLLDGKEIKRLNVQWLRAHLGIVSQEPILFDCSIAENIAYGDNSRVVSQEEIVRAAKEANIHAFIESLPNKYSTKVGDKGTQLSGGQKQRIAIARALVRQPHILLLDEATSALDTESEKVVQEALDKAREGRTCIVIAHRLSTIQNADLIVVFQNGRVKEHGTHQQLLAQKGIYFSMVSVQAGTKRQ
molecule,measurement,setting,value
bleomycin,histone H1 in cells,histone H1 in HeLa cells,No effect
calicheamicin [reference compound],MDR1 substrate,Human PGP (MDR1),good substrate for MDR1
same,histone H1 in cells,histone H1 in HeLa cells,No effect
same,digestion of histone H1,Histone H1,did not cleave histone H1
B1,induction of the p21 protein,[1]; HCT116 p21+/+ and p21−/−,Induction of the p21 protein was seen in the p21+/+ cells only
same,induction of apoptosis (PARP cleavage),[1]; p21−/− compared with p21+/+ cells,induction of apoptosis was preferentially observed in p21−/− cells compared with p21+/+ cells
same,IC50,p21−/− cells,7 + 2 μg/ml
same,IC50,p21+/+ cells,90 + 32 μg/ml
same,MDR1 substrate,Human PGP (MDR1),poor MDR1 substrate
same,histone H1 in cells,histone H1 in HeLa cells,reduced histone H1 in cells
same,requirement of a reducing agent for DNA cleavage,"Supercoiled φX174 DNA; dithiothreitol, DTT",did not require a reducing agent
same,DNA cleavage,"Supercoiled φX174 DNA; various concentrations, reaction progressed over 24 hours",induced single strand breaks and double strand breaks
same,IC50,SW620,2 µg/mL
same,IC50,HN5,4 µg/mL
same,IC50,MCF-7,2 µg/mL
same,competition of label by unlabeled reagent,[2],No competition of label was observed
same,biological activity upon FITC labeling,[2]; FITC labeled,No loss of biological activity
same,"uptake of labeled material, apoprotein versus chromoprotein",[2]; FITC labeled,similar
same,cellular localisation of label,"[2]; FITC labeled, fluorescent microscopy","Most of the label appeared in the cytoplasm, although weak staining was also observed in the nucleus"
same,IC50,LoVo,2 µg/mL
same,cleavage of other proteins,[3],"cleaves other basic proteins such as myelin basic protein, but not neutral/acidic proteins such as bovine serum albumin"
same,effect of free radical scavengers and protease inhibitors on digestion of histones,"Histone H1; 30 mM glutathione or N-acetyl cysteine, protease inhibitors","inhibited by the addition of free radical scavengers, 30 mM glutathione or N-acetyl cysteine (not shown), but not by protease inhibitors"
same,digestion of histone H1,Histone H1,digestion of Histone H1
same,effect of DNA on digestion of histone H1,Histone H1; addition of DNA,inhibited by addition of DNA
same,BIA activity,[4],BIA active
same,tolerability in nude mice,[5],well-tolerated
same,IC50,BT474,47 µg/mL
same,IC50,MDA-MB-361,5 µg/mL
B2,in vitro anti-tumor activity,[6],inactive
same,competition of label by unlabeled reagent,[2],No competition of label was observed
same,"uptake of labeled material, apoprotein versus chromoprotein",[2]; FITC labeled,similar
same,effect of sodium azide or nocodazole on uptake of label,"[2]; FITC-labeled, nocodazole 100 nM",Both treatments inhibited uptake of label
same,digestion of histone H1,Histone H1,no activity
